Data: patent publication US20240218337A1
Substitutions are numbered along the chain they refer to.

B1: example_3 (protein, part only; not given: constant regions, Gas6 trap, linker, not shown: a dimerising Fc or GST; small tags and cut ends)
heavy, part: EVQLQESGPGLVKPSQTLSLTCTVSGYSITSDYWNWIRKPPGKGLEYMGYISYTGSTYYNPSLKSRITISRDTSKNQYSLKLSSVTAADTAVYYCARRGEWLSPFAYWGQGTLVTVSS
light: DIQMTQSPSSLSASVGDRVTITCKSSQSLLYSSNQKNSLAWYQQKPGKAPKLLIYWASTRESGVPSRFSGSGSGTDFTLTISSLQPEDFATYYCQQYYTYPFTFGQGTKLEIK
B2: example_5 (protein, part only; not given: constant regions, Gas6 trap, linker, not shown: a dimerising Fc or GST; small tags and cut ends)
heavy, part: B1 heavy, part with N35D, K64R, E100G, A106V
light: B1 light with S26R, Y31F
B3: example_7 (protein, part only; not given: Fc, Gas6 trap, linkers, not shown: small tags and cut ends)
chain, part: EVQLQESGPGLVKPSQTLSLTCTVSGYSITSDYWNWIRKPPGKGLEYMGYISYTGSTYYNPSLKSRITISRDTSKNQYSLKLSSVTAADTAVYYCARRGEWLSPFAYWGQGTLVTVSSDIQMTQSPSSLSASVGDRVTITCKSSQSLLYSSNQKNSLAWYQQKPGKAPKLLIYWASTRESGVPSRFSGSGSGTDFTLTISSLQPEDFATYYCQQYYTYPFTFGQGTKLEIK
B4: example_8 (protein, part only; not given: Fc, Gas6 trap, linkers, not shown: small tags and cut ends)
chain, part: B3 chain, part with N35D, K64R, E100G, A106V, S144R, Y149F

The molecules below were run against PD-L1 on PD-L1 aAPC/CHO-K1 cells (human) (UniProt Q9NZQ7) (assay: cell-based or functional assay).

Row | PD-L1/PD-1 blockade assay, EC50 (luciferase in PD-1 effector cells) [nM] | Molecule
1 | < 3 | B1
2 | < 3 | B2
3 | < 3 | B3
4 | < 3 | B4

These molecules were tested against human Gas6 recombinant protein (human) (UniProt Q14393) (assay: ELISA, plate-coated test molecule, serially diluted hGas6).
Sequence of UniProt Q14393 (Q14393 49-678 limits assumed): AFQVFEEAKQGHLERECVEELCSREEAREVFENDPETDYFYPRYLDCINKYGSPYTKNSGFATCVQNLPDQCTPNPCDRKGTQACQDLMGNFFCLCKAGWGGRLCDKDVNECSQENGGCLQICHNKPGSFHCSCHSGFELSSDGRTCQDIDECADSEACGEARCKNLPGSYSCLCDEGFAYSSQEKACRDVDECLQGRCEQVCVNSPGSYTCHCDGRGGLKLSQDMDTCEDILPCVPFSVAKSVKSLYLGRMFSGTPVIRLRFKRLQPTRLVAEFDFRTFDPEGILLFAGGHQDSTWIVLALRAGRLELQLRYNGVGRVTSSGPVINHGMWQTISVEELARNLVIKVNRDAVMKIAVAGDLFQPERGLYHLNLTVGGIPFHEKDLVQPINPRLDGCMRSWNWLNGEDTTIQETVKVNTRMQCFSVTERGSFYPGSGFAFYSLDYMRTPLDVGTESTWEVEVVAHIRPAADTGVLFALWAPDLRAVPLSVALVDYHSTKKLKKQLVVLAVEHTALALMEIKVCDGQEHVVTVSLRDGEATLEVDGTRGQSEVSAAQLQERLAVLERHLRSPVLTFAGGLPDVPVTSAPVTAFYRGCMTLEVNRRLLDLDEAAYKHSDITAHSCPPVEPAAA

Row | EC50 [nM] | Molecule
5 | < 3 | Axl-Fc (Fc fusion)

What follows are molecules tested against Recombinant human PD-L1 protein (human) (UniProt Q9NZQ7) (assay: ELISA, plate-coated recombinant human PD-L1, anti-human IgG-HRP).

Row | EC50 [nM] | Molecule
6 | < 0.1 | B1
7 | < 0.1 | B2
8 | < 0.1 | B3
9 | < 0.1 | B4
